Data as given in US20170137467A1 (CHROMOTEK, published 2017).
Changes are numbered by the printed parent chain. Square brackets hold non-standard residues; d marks the D form. GABA = NCCCC(=O)O

T1: BC2T W10F
T1 construct: positional scanning library member
T1 peptide: Ac-PDRKAAVSHFQQ-NH2

T2: BC2T Q11N
T2 construct: positional scanning library member
T2 peptide: Ac-PDRKAAVSHWNQ-NH2

T3: BC2T H9C(Abu) (SMILES …)
T3 construct: positional scanning library member
T3 peptide: Ac-PDRKAAVS[GABA]WQQ-NH2

T4: BC2T H9M
T4 construct: positional scanning library member
T4 peptide: Ac-PDRKAAVSMWQQ-NH2

T5: BC2T H9N
T5 construct: positional scanning library member
T5 peptide: Ac-PDRKAAVSNWQQ-NH2

T6: BC2T S8F
T6 construct: positional scanning library member
T6 peptide: Ac-PDRKAAVFHWQQ-NH2

T7: BC2T Q11Y
T7 construct: positional scanning library member
T7 peptide: Ac-PDRKAAVSHWYQ-NH2

T8: BC2T Q11F
T8 construct: positional scanning library member
T8 peptide: Ac-PDRKAAVSHWFQ-NH2

T9: BC2T H9A
T9 construct: positional scanning library member
T9 peptide: Ac-PDRKAAVSAWQQ-NH2

T10: BC2T W10V
T10 construct: positional scanning library member
T10 peptide: Ac-PDRKAAVSHVQQ-NH2

T11: BC2T S8W
T11 construct: positional scanning library member
T11 peptide: Ac-PDRKAAVWHWQQ-NH2

T12: BC2T S8V
T12 construct: positional scanning library member
T12 peptide: Ac-PDRKAAVVHWQQ-NH2

T13: BC2T W10G
T13 construct: positional scanning library member
T13 peptide: Ac-PDRKAAVSHGQQ-NH2

T14: BC2T H9W
T14 construct: positional scanning library member
T14 peptide: Ac-PDRKAAVSWWQQ-NH2

T15: BC2T H9G
T15 construct: positional scanning library member
T15 peptide: Ac-PDRKAAVSGWQQ-NH2

T16: BC2T W10N
T16 construct: positional scanning library member
T16 peptide: Ac-PDRKAAVSHNQQ-NH2

T17: BC2T H9V
T17 construct: positional scanning library member
T17 peptide: Ac-PDRKAAVSVWQQ-NH2

T18: BC2T W10M
T18 construct: positional scanning library member
T18 peptide: Ac-PDRKAAVSHMQQ-NH2

B1: BC2 nanobody (VHH)
VHH: QVQLVESGGGLVQPGGSLTLSCTASGFTLDHYDIGWFRQAPGKEREGVSCINNSDDDTYYADSVKGRFTIFMDNAKDTVYLQMNSLKPEDTAIYYCAEARGCKRGRYEYDFWGQGTQVTVSS
notes: immobilised on beads in this assay; also called BC2-Nb; BC2 nanotrap (immobilised)
B2: BC2-NbR106S (VHH)
VHH: B1 VHH with R106S
notes: headlock mutant of BC2-Nb; immobilised on beads in this assay

Columns and labels:
Experiment in all cases: positional peptide library pulldown on immobilised Nb, LC-MS of supernatant; signal ratio to control GFP-Nb (1 = not captured, near 0 = captured)
BC2T W10F = biological target: T1, BC2T W10F
From the text: (§1) In total, 12 different BC2T libraries displaying all 20 proteinogenic amino acids in one single position of the peptide were used in immunoprecipitation experiments. […] The direct comparison with the GFP-Nb made it possible to determine the quantitative degree of peptide capture without the need of labeled standards. […] The more peptide was captured the more the value approximates 0. It was not possible to discriminate between isoleucine (I) and leucine (L) peptide versions since these peptides are isobaric.
(§2) To investigate the binding specificity of the BC2T and derived mutants peptide libraries for each amino acid position of the sequence […] (SEQ ID NO:4) were synthesized with acetyl and amide groups located at the N-termini or C-termini respectively (Intavis). […] Incubations were performed in 300 μl PBS/0.01% CHAPS for 1 h on a HulaMixer (Life Technologies). Subsequent to a centrifugation step 10 μl supernatant were analyzed in a LC-MS procedure. Peptides were separated using an UltiMate3000 RSLCnano System (Thermo Scientific), composed of a C18 PepMap100μ-Precolumn (300 μm×5 mm; particle size: 5 μm; pore size: 100 Å—Thermo Scientific) and a C18 analytical column (Acclaim Rapid Separation LC (RSLC) Column: 150 mm×5 mm; particle size: 2.2 μm; pore size: 100 Å—Thermo Scientific). A step gradient was applied starting at 8% and ending after 20 min at 30% eluent B (80% acetonitrile, 20% H₂O, 0.1% formic acid).

BC2T Q11N = biological target: T2, BC2T Q11N
From the text: as §1, §2

BC2T Q11(I/L1) = biological target: T19, BC2T Q11(I/L1) (N-terminal acetyl; C-terminal amide)
T19 construct: positional scanning library member; I or L not resolved
From the text: as §1, §2

BC2T H9C(Abu) = biological target: T3, BC2T H9C(Abu)
From the text: as §1, §2

BC2T H9M = biological target: T4, BC2T H9M
From the text: as §1, §2

BC2T H9N = biological target: T5, BC2T H9N
From the text: as §1, §2

BC2T S8F = biological target: T6, BC2T S8F
From the text: as §1, §2

BC2T Q11Y = biological target: T7, BC2T Q11Y
From the text: as §1, §2

BC2T Q11F = biological target: T8, BC2T Q11F
From the text: as §1, §2

BC2T H9A = biological target: T9, BC2T H9A
From the text: as §1, §2

BC2T W10V = biological target: T10, BC2T W10V
From the text: as §1, §2

BC2T S8W = biological target: T11, BC2T S8W
From the text: as §1, §2

BC2T S8V = biological target: T12, BC2T S8V
From the text: as §1, §2

BC2T W10G = biological target: T13, BC2T W10G
From the text: as §1, §2

BC2T H9W = biological target: T14, BC2T H9W
From the text: as §1, §2

BC2T H9G = biological target: T15, BC2T H9G
From the text: as §1, §2

BC2T W10N = biological target: T16, BC2T W10N
From the text: as §1, §2

BC2T W10(I/L2) = biological target: T20, BC2T W10(I/L2) (N-terminal acetyl; C-terminal amide)
T20 construct: positional scanning library member; I or L not resolved
From the text: as §1, §2

BC2T H9V = biological target: T17, BC2T H9V
From the text: as §1, §2

BC2T W10M = biological target: T18, BC2T W10M
From the text: as §1, §2

BC2T Q11(I/L2) = biological target: T21, BC2T Q11(I/L2) (N-terminal acetyl; C-terminal amide)
T21 construct: positional scanning library member; I or L not resolved
From the text: as §1, §2

Row | Binder | ratio (BC2T W10F) | ratio (BC2T Q11N) | ratio (BC2T Q11(I/L1)) | ratio (BC2T H9C(Abu)) | ratio (BC2T H9M) | ratio (BC2T H9N) | ratio (BC2T S8F) | ratio (BC2T Q11Y) | ratio (BC2T Q11F) | ratio (BC2T H9A) | ratio (BC2T W10V) | ratio (BC2T S8W) | ratio (BC2T S8V) | ratio (BC2T W10G) | ratio (BC2T H9W) | ratio (BC2T H9G) | ratio (BC2T W10N) | ratio (BC2T W10(I/L2)) | ratio (BC2T H9V) | ratio (BC2T W10M) | other results
1 | B1 | 0.9 | 0.1 | 0.1 | 0.2 | 0.1 | 0.1 | 0.7 | 0 | 0 | 0.2 | 1 | 0.6 | 0.1 | 1.2 | 0.1 | 0.4 | 1 | 1 | 0.2 | 1 | ratio (BC2T Q11(I/L2)): 0.1
2 | B2 | 1.1 | 0.3 | 0.2 | 0.5 | 0.3 | 0.3 | 0.9 | 0.1 | 0.2 | 0.5 | 1 | 0.9 | 0.3 | 1.1 | 0.1 | 0.8 | 1.1 | 1.1 | 0.6 | 1.1 | ratio (BC2T Q11(I/L2)): 0.4
